Reference: IntAct's records for PubMed 19182799

B1: Mitochondrial intermembrane space import and assembly protein 40 (Saccharomyces cerevisiae), P36046 (parent)
chain: MLRNLVVRNACRNRPSIQVARGLCRHQTRRLMASSPQFGRNSNQEKTAGFIMGILSMAGALYFIAPNRKPLFASRKVESDKTAEEELSSGGEQSPENEDDNNSKSDENGDDNDSKNDETEAGPQLGGDKIGASKVAEDGELVVLAEEDNKSSEDKDTDESKVSTKDDEQSNEDNATANNQKDENISSENSEENTSDKTLDNNAGSSEKKDPEHSDDEKSQQGQSDDKTTTEDNNGEEESSKKTVSDSENSAKQSESSDEEKEELRKQEEKQMGPTEEEVQHEGAYNPDTGEINWDCPCLGGMAHGPCGEEFKSAFSCFVYSEAEPKGIDCVEKFQHMQDCFRKYPEHYAEQLKETSDDEEPQDKVKVNTIESAPNVSSAKENAAKKAEQSDVKKEPLNEESKP
partner: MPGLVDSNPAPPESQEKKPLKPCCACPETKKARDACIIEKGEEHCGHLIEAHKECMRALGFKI
B2: Mitochondrial intermembrane space import and assembly protein 40 (Saccharomyces cerevisiae), P36046 (parent)
chain: B1 chain
partner: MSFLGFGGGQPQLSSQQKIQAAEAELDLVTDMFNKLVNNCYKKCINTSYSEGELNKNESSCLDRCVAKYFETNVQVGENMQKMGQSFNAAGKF

Variants of: B1
Conditions: with cox17_human COX17, Q14061

effect of a mutation on the interaction	Variant
decreasing interaction	C298S
disrupting interaction	C296S;C298S

Variants of: B2
Conditions: with tim10_yeast TIM10, P87108

effect of a mutation on the interaction	Variant
disrupting interaction	C296S;C298S
decreasing interaction	C298S
